Patent US20240261333A1, “NOVEL TARGETS FOR ENHANCING ANTI-TUMOR IMMUNITY” (THE BROAD INSTITUTE, INC., priority 2021, published 2024)

What was measured:
[1] = target: CCT3 (human) (UniProt P49368); test: control IP with IgG, lysate of cells with N-FLAG B3GNT2, mass spectrometry
[2] = target: HNRNPM (human) (UniProt P52272); test: as above
[3] = target: RACK1 (human) (UniProt P63244); test: as above
[4] = target: RPL8 (human) (UniProt P62917); test: as above
[5] = target: TBL2 (human) (UniProt Q9Y4P3); test: as above
[6] = target: RPL38 (human) (UniProt P63173); test: as above
[7] = target: PKM (human) (UniProt P14618); test: as above
[8] = target: DDX1 (human) (UniProt Q92499); test: as above
[9] = target: CALML5 (human) (UniProt Q9NZT1); test: as above
[10] = target: IMMT (human) (UniProt Q16891); test: as above
[11] = target: MAP4 (human) (UniProt P27816); test: as above
[12] = target: S100A7 (human) (UniProt P31151); test: as above
[13] = target: KCTD5 (human) (UniProt Q9NXV2); test: as above
[14] = target: RPL28 (human) (UniProt P46779); test: as above
[15] = target: RPS14 (human) (UniProt P62263); test: as above
[16] = target: SYNPO (human) (UniProt Q8N3V7); test: as above
[17] = target: SYNM (human) (UniProt O15061); test: as above
[18] = target: EMILIN1 (human) (UniProt Q9Y6C2); test: as above
[19] = target: RPL36A (UniProt P83881); test: co-IP with anti-FLAG, mass spectrometry; C-FLAG B3GNT2
[20] = target: YBX3 (UniProt P16989); test: as above
[21] = target: RPLP2 (UniProt P05387); test: as above
[22] = target: LYZ (UniProt P61626); test: as above
[23] = target: EEF1A1 (UniProt P68104); test: as above
[24] = target: RCC2 (UniProt Q9P258); test: as above
[25] = target: STRAP (UniProt Q9Y3F4); test: as above
[26] = target: SLIRP (UniProt Q9GZT3); test: as above
[27] = target: SERPINB12 (UniProt Q96P63); test: as above
[28] = target: RPN1 (UniProt P04843); test: as above
[29] = target: PCMT1 (UniProt P22061); test: as above
[30] = target: YWHAZ (UniProt P63104); test: as above
[31] = target: RPL35A (UniProt P18077); test: as above
[32] = target: RPL31 (UniProt P62899); test: as above
[33] = target: CTSD (UniProt P07339); test: as above
[34] = target: HNRNPF (UniProt P52597); test: as above
[35] = target: RPL21 (UniProt P46778); test: as above
[36] = target: HBA1 (UniProt P69905); test: as above
[37] = target: HNRNPA1 (UniProt P09651); test: as above
[38] = target: RPL36 (UniProt Q9Y3U8); test: as above
[39] = target: RPL10A (UniProt P62906); test: as above
[40] = target: LTF (UniProt P02788); test: as above

Chain of HNRNPM (human) (P52272 2-730 limits assumed): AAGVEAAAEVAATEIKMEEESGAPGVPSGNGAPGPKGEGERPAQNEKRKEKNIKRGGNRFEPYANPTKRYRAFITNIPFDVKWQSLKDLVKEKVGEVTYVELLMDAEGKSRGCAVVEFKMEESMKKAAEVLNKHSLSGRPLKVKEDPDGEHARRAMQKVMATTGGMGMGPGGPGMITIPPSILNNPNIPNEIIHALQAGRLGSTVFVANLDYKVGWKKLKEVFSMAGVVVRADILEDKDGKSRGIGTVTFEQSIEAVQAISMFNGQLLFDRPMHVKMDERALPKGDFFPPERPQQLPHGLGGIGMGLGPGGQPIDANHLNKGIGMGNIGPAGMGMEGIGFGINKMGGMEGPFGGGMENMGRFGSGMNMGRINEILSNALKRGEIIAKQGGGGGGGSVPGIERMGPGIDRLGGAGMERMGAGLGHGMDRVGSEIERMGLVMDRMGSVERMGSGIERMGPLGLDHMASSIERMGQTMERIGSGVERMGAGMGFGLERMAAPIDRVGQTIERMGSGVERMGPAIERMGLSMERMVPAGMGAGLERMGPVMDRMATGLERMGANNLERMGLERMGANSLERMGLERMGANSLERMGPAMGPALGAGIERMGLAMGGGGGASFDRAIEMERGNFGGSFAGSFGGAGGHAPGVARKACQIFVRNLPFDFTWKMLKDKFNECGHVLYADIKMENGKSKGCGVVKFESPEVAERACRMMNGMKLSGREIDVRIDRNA
Chain of RPLP2 (P05387 whole entry): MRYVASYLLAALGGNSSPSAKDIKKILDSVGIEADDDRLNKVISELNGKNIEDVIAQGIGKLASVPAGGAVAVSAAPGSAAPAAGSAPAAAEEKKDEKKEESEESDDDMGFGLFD
Chain of RCC2 (Q9P258 whole entry): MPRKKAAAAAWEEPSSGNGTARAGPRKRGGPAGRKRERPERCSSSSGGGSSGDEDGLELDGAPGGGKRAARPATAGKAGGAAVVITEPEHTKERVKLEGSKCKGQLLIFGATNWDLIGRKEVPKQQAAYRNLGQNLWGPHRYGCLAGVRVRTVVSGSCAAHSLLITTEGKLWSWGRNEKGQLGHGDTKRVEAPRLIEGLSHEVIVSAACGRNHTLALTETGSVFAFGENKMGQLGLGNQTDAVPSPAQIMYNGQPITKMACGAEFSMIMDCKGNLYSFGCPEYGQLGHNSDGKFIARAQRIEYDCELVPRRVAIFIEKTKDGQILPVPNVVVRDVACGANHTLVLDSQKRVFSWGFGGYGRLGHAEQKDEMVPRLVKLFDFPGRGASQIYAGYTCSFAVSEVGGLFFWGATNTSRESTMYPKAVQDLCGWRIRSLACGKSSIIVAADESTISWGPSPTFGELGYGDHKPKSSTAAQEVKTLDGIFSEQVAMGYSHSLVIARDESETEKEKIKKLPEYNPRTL
Chain of HNRNPA1 (P09651 2-372 limits assumed): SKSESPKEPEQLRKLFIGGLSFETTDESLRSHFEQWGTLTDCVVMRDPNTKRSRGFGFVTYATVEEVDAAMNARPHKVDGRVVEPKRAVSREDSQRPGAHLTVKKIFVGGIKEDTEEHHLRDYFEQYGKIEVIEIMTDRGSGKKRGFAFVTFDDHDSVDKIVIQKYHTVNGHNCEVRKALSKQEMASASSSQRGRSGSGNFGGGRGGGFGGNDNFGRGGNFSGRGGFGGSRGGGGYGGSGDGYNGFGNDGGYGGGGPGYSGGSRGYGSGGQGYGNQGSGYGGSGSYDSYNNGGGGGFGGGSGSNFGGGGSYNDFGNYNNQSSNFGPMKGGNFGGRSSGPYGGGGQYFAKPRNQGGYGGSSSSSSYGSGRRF
Chain of HBA1 (P69905 2-142 limits assumed): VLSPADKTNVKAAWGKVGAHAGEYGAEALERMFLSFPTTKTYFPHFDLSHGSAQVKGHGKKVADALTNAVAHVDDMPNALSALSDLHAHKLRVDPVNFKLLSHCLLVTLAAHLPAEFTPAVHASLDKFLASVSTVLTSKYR
Chain of EMILIN1 (human) (Q9Y6C2 22-1016 limits assumed): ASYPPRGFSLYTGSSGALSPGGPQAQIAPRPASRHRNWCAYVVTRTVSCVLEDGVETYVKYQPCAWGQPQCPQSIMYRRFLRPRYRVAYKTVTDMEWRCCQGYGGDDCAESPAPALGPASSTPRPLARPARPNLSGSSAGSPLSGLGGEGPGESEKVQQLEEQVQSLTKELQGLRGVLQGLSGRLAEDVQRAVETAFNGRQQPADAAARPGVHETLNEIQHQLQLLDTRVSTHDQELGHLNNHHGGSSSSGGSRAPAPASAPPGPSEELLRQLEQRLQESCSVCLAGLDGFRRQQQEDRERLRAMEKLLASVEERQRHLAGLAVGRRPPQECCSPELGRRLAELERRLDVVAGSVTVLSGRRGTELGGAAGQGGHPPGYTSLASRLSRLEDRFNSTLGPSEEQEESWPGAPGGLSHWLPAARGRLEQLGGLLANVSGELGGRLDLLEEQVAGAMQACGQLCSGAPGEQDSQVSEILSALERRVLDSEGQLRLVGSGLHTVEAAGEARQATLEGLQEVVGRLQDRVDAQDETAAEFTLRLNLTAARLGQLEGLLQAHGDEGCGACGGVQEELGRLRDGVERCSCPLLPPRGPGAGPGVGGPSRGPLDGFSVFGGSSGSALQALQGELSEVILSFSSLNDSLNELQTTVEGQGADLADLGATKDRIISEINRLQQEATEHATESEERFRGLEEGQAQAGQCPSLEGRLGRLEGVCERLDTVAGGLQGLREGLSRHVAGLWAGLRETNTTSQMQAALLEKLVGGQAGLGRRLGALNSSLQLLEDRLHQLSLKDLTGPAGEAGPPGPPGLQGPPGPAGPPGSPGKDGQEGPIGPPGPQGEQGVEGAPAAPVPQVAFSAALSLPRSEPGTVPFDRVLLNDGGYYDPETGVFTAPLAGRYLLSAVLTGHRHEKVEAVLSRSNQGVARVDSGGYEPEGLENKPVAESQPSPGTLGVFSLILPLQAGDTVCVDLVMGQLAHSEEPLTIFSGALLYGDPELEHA
Chain of HNRNPF (P52597 2-415 limits assumed): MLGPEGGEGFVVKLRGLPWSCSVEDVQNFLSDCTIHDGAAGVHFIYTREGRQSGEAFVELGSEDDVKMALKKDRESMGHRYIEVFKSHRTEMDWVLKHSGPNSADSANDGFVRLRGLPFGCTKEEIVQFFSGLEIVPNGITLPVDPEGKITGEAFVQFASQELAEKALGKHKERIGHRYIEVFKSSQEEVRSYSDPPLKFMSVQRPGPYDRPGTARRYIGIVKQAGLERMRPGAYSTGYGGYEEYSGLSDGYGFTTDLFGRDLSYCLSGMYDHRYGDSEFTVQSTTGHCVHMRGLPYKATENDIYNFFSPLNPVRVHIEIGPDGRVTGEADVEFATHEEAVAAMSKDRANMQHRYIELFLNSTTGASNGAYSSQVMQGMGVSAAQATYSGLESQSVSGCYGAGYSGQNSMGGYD
Chain of STRAP (Q9Y3F4 whole entry): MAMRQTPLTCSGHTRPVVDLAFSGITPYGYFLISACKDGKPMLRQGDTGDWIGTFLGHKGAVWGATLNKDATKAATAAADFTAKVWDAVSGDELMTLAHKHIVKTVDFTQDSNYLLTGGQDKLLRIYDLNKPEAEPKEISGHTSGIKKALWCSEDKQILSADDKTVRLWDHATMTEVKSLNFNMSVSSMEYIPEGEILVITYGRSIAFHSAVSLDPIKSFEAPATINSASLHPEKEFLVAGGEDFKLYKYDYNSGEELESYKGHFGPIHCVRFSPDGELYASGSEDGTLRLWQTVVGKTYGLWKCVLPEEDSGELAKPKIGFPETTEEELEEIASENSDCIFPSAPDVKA
Chain of PCMT1 (P22061 2-227 limits assumed): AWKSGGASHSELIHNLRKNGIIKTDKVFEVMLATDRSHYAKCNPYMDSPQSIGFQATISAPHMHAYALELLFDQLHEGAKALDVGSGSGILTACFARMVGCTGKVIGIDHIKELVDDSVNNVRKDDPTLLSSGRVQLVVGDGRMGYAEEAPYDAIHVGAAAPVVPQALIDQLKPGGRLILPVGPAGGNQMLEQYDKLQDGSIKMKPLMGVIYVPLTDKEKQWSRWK
Chain of TBL2 (human) (Q9Y4P3 whole entry): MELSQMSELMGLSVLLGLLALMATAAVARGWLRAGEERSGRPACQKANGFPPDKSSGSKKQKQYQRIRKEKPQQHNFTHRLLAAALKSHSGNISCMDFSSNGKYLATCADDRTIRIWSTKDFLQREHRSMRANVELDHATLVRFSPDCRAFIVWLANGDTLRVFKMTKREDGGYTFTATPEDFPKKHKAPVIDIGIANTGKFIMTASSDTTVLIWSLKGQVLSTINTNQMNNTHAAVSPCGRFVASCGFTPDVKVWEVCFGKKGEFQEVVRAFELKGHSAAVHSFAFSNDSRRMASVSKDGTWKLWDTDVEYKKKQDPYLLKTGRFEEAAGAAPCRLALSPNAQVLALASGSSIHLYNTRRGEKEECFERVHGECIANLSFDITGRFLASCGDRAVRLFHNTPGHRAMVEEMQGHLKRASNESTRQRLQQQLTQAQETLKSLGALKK
Chain of CCT3 (human) (P49368 whole entry): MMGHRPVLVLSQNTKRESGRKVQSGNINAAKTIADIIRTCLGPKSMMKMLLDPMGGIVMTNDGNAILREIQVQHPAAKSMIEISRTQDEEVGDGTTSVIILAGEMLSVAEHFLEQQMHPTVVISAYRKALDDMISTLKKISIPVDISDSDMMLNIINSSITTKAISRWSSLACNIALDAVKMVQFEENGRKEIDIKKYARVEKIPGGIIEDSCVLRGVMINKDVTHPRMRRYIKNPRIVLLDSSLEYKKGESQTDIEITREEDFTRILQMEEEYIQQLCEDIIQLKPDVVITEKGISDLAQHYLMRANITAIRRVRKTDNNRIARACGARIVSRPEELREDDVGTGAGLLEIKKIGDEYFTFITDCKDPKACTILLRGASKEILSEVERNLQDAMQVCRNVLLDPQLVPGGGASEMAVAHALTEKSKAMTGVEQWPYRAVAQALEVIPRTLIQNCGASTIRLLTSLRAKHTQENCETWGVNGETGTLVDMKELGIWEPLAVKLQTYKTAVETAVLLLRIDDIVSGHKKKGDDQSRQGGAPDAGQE

IgG control (Millipore Sigma 12-371) (antibody)
co-IP mass spectrometry count [1]: 0
co-IP mass spectrometry count [2]: 5
co-IP mass spectrometry count [3]: 0
co-IP mass spectrometry count [4]: 3
co-IP mass spectrometry count [5]: 0
co-IP mass spectrometry count [6]: 5
co-IP mass spectrometry count [7]: 2
co-IP mass spectrometry count [8]: 2
co-IP mass spectrometry count [9]: 0
co-IP mass spectrometry count [10]: 17
co-IP mass spectrometry count [11]: 0
co-IP mass spectrometry count [12]: 2
co-IP mass spectrometry count [13]: 0
co-IP mass spectrometry count [14]: 3
co-IP mass spectrometry count [15]: 9
co-IP mass spectrometry count [16]: 4
co-IP mass spectrometry count [17]: 5
co-IP mass spectrometry count [18]: 0

C-terminal FLAG tagged B3GNT2 (from UniProt Q9NY97 1-397) (enzyme)
co-IP mass spectrometry count [19]: 11
co-IP mass spectrometry count [20]: 7
co-IP mass spectrometry count [21]: 13
co-IP mass spectrometry count [22]: 6
co-IP mass spectrometry count [23]: 11
co-IP mass spectrometry count [24]: 6
co-IP mass spectrometry count [25]: 3
co-IP mass spectrometry count [26]: 6
co-IP mass spectrometry count [27]: 2
co-IP mass spectrometry count [28]: 7
co-IP mass spectrometry count [29]: 2
co-IP mass spectrometry count [30]: 4
co-IP mass spectrometry count [31]: 6
co-IP mass spectrometry count [32]: 6
co-IP mass spectrometry count [33]: 4
co-IP mass spectrometry count [34]: 7
co-IP mass spectrometry count [35]: 11
co-IP mass spectrometry count [36]: 4
co-IP mass spectrometry count [37]: 9
co-IP mass spectrometry count [38]: 6
co-IP mass spectrometry count [39]: 16
co-IP mass spectrometry count [40]: 7
